These results are taken from patent publication US20090209453A1 (UNIVERSITY OF MEDICINE AND DENTISTRY OF NEW JERSEY, published 2009).

Test [1] deals with T1, rat LH receptor (rat, UniProt P16235 27-700).
T1 construct: whole, on cells; CHO cells engineered to (over)express the rat LH receptor; also called rat lutropin receptor
The test is described as follows: competition with radioiodinated hCG for rat LH receptors.

Test [2] has as its target T1, rat LH receptor. Briefly: 125I-hCG competition on rat LH receptors.

T1 sequence (P16235 27-700): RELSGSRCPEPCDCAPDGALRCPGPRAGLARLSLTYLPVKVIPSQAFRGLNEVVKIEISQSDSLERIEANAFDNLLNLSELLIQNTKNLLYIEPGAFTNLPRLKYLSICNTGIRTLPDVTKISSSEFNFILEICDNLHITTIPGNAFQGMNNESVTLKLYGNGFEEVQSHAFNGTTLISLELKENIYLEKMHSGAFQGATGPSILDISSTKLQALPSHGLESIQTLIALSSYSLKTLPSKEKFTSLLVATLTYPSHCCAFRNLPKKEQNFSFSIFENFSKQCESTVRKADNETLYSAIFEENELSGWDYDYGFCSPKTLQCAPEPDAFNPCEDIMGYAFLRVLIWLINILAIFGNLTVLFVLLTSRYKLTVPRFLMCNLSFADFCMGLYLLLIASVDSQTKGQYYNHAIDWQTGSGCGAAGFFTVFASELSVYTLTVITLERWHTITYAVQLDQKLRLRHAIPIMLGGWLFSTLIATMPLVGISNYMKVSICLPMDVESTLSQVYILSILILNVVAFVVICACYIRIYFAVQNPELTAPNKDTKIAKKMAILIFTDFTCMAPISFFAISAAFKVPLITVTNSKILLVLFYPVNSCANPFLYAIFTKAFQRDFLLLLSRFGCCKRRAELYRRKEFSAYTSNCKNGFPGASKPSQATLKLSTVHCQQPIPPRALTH

B1: pRM917+pMB2545 crosslinked heterodimer (ligand)
alpha: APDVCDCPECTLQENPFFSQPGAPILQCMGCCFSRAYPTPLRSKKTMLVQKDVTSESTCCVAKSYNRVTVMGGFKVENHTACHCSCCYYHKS
beta: SRPCCRPINATLAVEKEGCPVAITVNTTICAGYCPTMTRVLQGVLPALPQVVCNYRDVRFESIRLPGCPRGVNPVVSYAVALSCQCALCRRSTTDCGC
modifications: Potential intersubunit disulfides α5-β8 and α86-β102; N-linked glycans on both subunits (none at α52).
notes: Potential disulfides α5-β8 and α86-β102; also called pRM917 and pMB2545; copies: 1 + 1
In the case of B1, in test [1], the binding result is recorded as “binds”.

B2: pMB2472+pMB2673 heterodimer (crosslink α86-β108) (ligand)
alpha: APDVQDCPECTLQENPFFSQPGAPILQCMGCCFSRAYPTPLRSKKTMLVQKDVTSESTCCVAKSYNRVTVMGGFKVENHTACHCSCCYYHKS
beta: SKEPLRPRCRPINATLAVEKEGCPVCITVNTTICAGYCPTMTRVLQGVLPALPQVVCNYRDVRFESIRLPGCPRGVNPVVSYAVALSCQCALCRRSTTDCGGPKDHPC
modifications: Intersubunit disulfide between alpha Cys86 and beta Cys108 (the beta C-terminus). N-linked glycans remain, except at alpha position 52 (N52D). Beta Cys26 is free.
notes: The text says that pMB1244 or pMB2472 was the α-subunit construct; also called pMB2472 and pMB2673
In the case of B2, in test [2], the binding result was “binds”.

B3: pMB2472+pMB2672 heterodimer (crosslink α86-β106) (ligand)
alpha: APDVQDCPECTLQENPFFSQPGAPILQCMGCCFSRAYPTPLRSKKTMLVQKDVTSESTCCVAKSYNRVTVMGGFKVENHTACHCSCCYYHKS
beta: SKEPLRPRCRPINATLAVEKEGCPVCITVNTTICAGYCPTMTRVLQGVLPALPQVVCNYRDVRFESIRLPGCPRGVNPVVSYAVALSCQCALCRRSTTDCGGPKDC
modifications: Intersubunit disulfide between alpha Cys86 and beta Cys106 (the beta C-terminus). N-linked glycans remain, except at alpha position 52 (N52D). Beta Cys26 is free.
notes: The text says that pMB1244 or pMB2472 was the α-subunit construct; also called pMB2472 and pMB2672
As to B3, the binding result in test [2] is recorded as “binds”.
